Patent US20240270839A1 (ELPISCIENCE SUZHOU BIOPHARMA, published 2024)

B1: hu22E12.H2L2 (antibody, V domains shown)
VH: QVQLVQSGAEVKKPGASVKVSCKASGYTFTNWVHWVRQAPGQGLEWMGEINPTNARSNYNEKFKKRVTMTRDRSTSTVYMELSSLRSEDTAVYFCAGIYYGNSFAHWGQGTLVTVSS
VL: DIVMTQSPDSLAVSLGERATINCKSSQSLLNAGNQKNYLTWYQQKPGQPPKLLIYWSSTRESGVPDRFSGSGSGTDFTLTISSLQAEDVAVYHCQNNYYYPLTFGGGTKLEIK
notes: humanized 22E12
B2: hu22E12.H1L1 (antibody, V domains shown)
VH: QVQLVQSGAEVKKPGASVKVSCKASGYTFTNWVHWVRQAPGQGLEWMGEINPTNARSNYNEKFKKRVTMTRDTSTSTVYMELSSLRSEDTAVYYCARIYYGNSFAHWGQGTLVTVSS
VL: DIVMTQSPDSLAVSLGERATINCKSSQSLLNAGNQKNYLTWYQQKPGQPPKLLIYWSSTRESGVPDRFSGSGSGTDFTLTISSLQAEDVAVYYCQNNYYYPLTFGGGTKLEIK
notes: humanized 22E12
B3: hu22E12.H1L3 (antibody, V domains shown)
VH: QVQLVQSGAEVKKPGASVKVSCKASGYTFTNWVHWVRQAPGQGLEWMGEINPTNARSNYNEKFKKRVTMTRDTSTSTVYMELSSLRSEDTAVYYCARIYYGNSFAHWGQGTLVTVSS
VL: DIVMTQSPDSLAVSLGERVTLNCKSSQSLLNAGNQKNYLTWYQQKPGQPPKLLIYWSSTRESGVPDRFSGSGSGTDFTLTISSVQAEDVAVYHCQNNYYYPLTFGGGTKLEIK
notes: humanized 22E12
B4: hu22E12.H2L1 (antibody, V domains shown)
VH: QVQLVQSGAEVKKPGASVKVSCKASGYTFTNWVHWVRQAPGQGLEWMGEINPTNARSNYNEKFKKRVTMTRDRSTSTVYMELSSLRSEDTAVYFCAGIYYGNSFAHWGQGTLVTVSS
VL: DIVMTQSPDSLAVSLGERATINCKSSQSLLNAGNQKNYLTWYQQKPGQPPKLLIYWSSTRESGVPDRFSGSGSGTDFTLTISSLQAEDVAVYYCQNNYYYPLTFGGGTKLEIK
notes: humanized 22E12
B5: hu22E12.H2L3 (antibody, V domains shown)
VH: QVQLVQSGAEVKKPGASVKVSCKASGYTFTNWVHWVRQAPGQGLEWMGEINPTNARSNYNEKFKKRVTMTRDRSTSTVYMELSSLRSEDTAVYFCAGIYYGNSFAHWGQGTLVTVSS
VL: DIVMTQSPDSLAVSLGERVTLNCKSSQSLLNAGNQKNYLTWYQQKPGQPPKLLIYWSSTRESGVPDRFSGSGSGTDFTLTISSVQAEDVAVYHCQNNYYYPLTFGGGTKLEIK
notes: humanized 22E12
B6: hu22E12.H3L1 (antibody, V domains shown)
VH: QVQLVQSGAEVVKPGASVKVSCKASGYTFTNWVHWVIQAPGQGLEWMGEINPTNARSNYNEKFKKRVTMTLDRSTSTVYMELSSLRSEDTAVYFCAGIYYGNSFAHWGQGTLVTVSS
VL: DIVMTQSPDSLAVSLGERATINCKSSQSLLNAGNQKNYLTWYQQKPGQPPKLLIYWSSTRESGVPDRFSGSGSGTDFTLTISSLQAEDVAVYYCQNNYYYPLTFGGGTKLEIK
notes: humanized 22E12
B7: hu22E12.H3L2 (antibody, V domains shown)
VH: QVQLVQSGAEVVKPGASVKVSCKASGYTFTNWVHWVIQAPGQGLEWMGEINPTNARSNYNEKFKKRVTMTLDRSTSTVYMELSSLRSEDTAVYFCAGIYYGNSFAHWGQGTLVTVSS
VL: DIVMTQSPDSLAVSLGERATINCKSSQSLLNAGNQKNYLTWYQQKPGQPPKLLIYWSSTRESGVPDRFSGSGSGTDFTLTISSLQAEDVAVYHCQNNYYYPLTFGGGTKLEIK
notes: humanized 22E12
B8: hu22E12.H3L3 (antibody, V domains shown)
VH: QVQLVQSGAEVVKPGASVKVSCKASGYTFTNWVHWVIQAPGQGLEWMGEINPTNARSNYNEKFKKRVTMTLDRSTSTVYMELSSLRSEDTAVYFCAGIYYGNSFAHWGQGTLVTVSS
VL: DIVMTQSPDSLAVSLGERVTLNCKSSQSLLNAGNQKNYLTWYQQKPGQPPKLLIYWSSTRESGVPDRFSGSGSGTDFTLTISSVQAEDVAVYHCQNNYYYPLTFGGGTKLEIK
notes: humanized 22E12
B9: hu22E12.H4L1 (antibody, V domains shown)
VH: QVQLVQSGAEVVKPGASVKLSCKASGYTFTNWVHWVIQAPGQGLEWIGEINPTNARSNYNEKFKKRVTLTLDRSTSTVYMELSSLRSEDTAVYFCAGIYYGNSFAHWGQGTLVTVSS
VL: DIVMTQSPDSLAVSLGERATINCKSSQSLLNAGNQKNYLTWYQQKPGQPPKLLIYWSSTRESGVPDRFSGSGSGTDFTLTISSLQAEDVAVYYCQNNYYYPLTFGGGTKLEIK
notes: humanized 22E12
B10: hu22E12.H4L2 (antibody, V domains shown)
VH: QVQLVQSGAEVVKPGASVKLSCKASGYTFTNWVHWVIQAPGQGLEWIGEINPTNARSNYNEKFKKRVTLTLDRSTSTVYMELSSLRSEDTAVYFCAGIYYGNSFAHWGQGTLVTVSS
VL: DIVMTQSPDSLAVSLGERATINCKSSQSLLNAGNQKNYLTWYQQKPGQPPKLLIYWSSTRESGVPDRFSGSGSGTDFTLTISSLQAEDVAVYHCQNNYYYPLTFGGGTKLEIK
notes: humanized 22E12
B11: hu22E12.H4L3 (antibody, V domains shown)
VH: QVQLVQSGAEVVKPGASVKLSCKASGYTFTNWVHWVIQAPGQGLEWIGEINPTNARSNYNEKFKKRVTLTLDRSTSTVYMELSSLRSEDTAVYFCAGIYYGNSFAHWGQGTLVTVSS
VL: DIVMTQSPDSLAVSLGERVTLNCKSSQSLLNAGNQKNYLTWYQQKPGQPPKLLIYWSSTRESGVPDRFSGSGSGTDFTLTISSVQAEDVAVYHCQNNYYYPLTFGGGTKLEIK
notes: humanized 22E12
B12: hu35B4.H2L2 (antibody, V domains shown)
VH: EVQLLESGGGLVQPGGSLRLSCAASGFTLSSYALSWVRQAPGKGLEWVSYISNLGGSTFYPDTVKGRFTISRDNSKNTLYLQMNSLRAEDTAVYYCATHLYNYDAFASWGQGTLVTVSS
VL: DIQLTQSPSFLSASVGDRVTITCRASSSVNYIHWYQQKPGKAPKALIYATSNLASGVPSRFSGSGSGTEYTLTISSLQPEDFATYYCQQWNSNPLTFGQGTKLEIK
notes: humanized 35B4
B13: hu35B4.H1L1 (antibody, V domains shown)
VH: EVQLLESGGGLVQPGGSLRLSCAASGFTLSSYALSWVRQAPGKGLEWVSYISNLGGSTFYPDTVKGRFTISRDNSKNTLYLQMNSLRAEDTAVYYCAKHLYNYDAFASWGQGTLVTVSS
VL: DIQLTQSPSFLSASVGDRVTITCRASSSVNYIHWYQQKPGKAPKLLIYATSNLASGVPSRFSGSGSGTEFTLTISSLQPEDFATYYCQQWNSNPLTFGQGTKLEIK
notes: humanized 35B4
B14: hu35B4.H1L3 (antibody, V domains shown)
VH: EVQLLESGGGLVQPGGSLRLSCAASGFTLSSYALSWVRQAPGKGLEWVSYISNLGGSTFYPDTVKGRFTISRDNSKNTLYLQMNSLRAEDTAVYYCAKHLYNYDAFASWGQGTLVTVSS
VL: DIQLTQSPSFLSASVGDRVTITCRASSSVNYIHWYQQKPGKSPKALIYATSNLASGVPSRFSGSGSGTEYTLTISSLQPEDFATYYCQQWNSNPLTFGQGTKLEIK
notes: humanized 35B4
B15: hu35B4.H1L4 (antibody, V domains shown)
VH: EVQLLESGGGLVQPGGSLRLSCAASGFTLSSYALSWVRQAPGKGLEWVSYISNLGGSTFYPDTVKGRFTISRDNSKNTLYLQMNSLRAEDTAVYYCAKHLYNYDAFASWGQGTLVTVSS
VL: DIQLTQSPSFLSASVGDRVTMTCRASSSVNYIHWYQQKPGKSPKALIYATSNLASGVPSRFSGSGSGTEYTLTISSVQPEDFATYYCQQWNSNPLTFGQGTKLEIK
notes: humanized 35B4
B16: hu35B4.H2L1 (antibody, V domains shown)
VH: EVQLLESGGGLVQPGGSLRLSCAASGFTLSSYALSWVRQAPGKGLEWVSYISNLGGSTFYPDTVKGRFTISRDNSKNTLYLQMNSLRAEDTAVYYCATHLYNYDAFASWGQGTLVTVSS
VL: DIQLTQSPSFLSASVGDRVTITCRASSSVNYIHWYQQKPGKAPKLLIYATSNLASGVPSRFSGSGSGTEFTLTISSLQPEDFATYYCQQWNSNPLTFGQGTKLEIK
notes: humanized 35B4
B17: hu35B4.H2L3 (antibody, V domains shown)
VH: EVQLLESGGGLVQPGGSLRLSCAASGFTLSSYALSWVRQAPGKGLEWVSYISNLGGSTFYPDTVKGRFTISRDNSKNTLYLQMNSLRAEDTAVYYCATHLYNYDAFASWGQGTLVTVSS
VL: DIQLTQSPSFLSASVGDRVTITCRASSSVNYIHWYQQKPGKSPKALIYATSNLASGVPSRFSGSGSGTEYTLTISSLQPEDFATYYCQQWNSNPLTFGQGTKLEIK
notes: humanized 35B4
B18: hu35B4.H2L4 (antibody, V domains shown)
VH: EVQLLESGGGLVQPGGSLRLSCAASGFTLSSYALSWVRQAPGKGLEWVSYISNLGGSTFYPDTVKGRFTISRDNSKNTLYLQMNSLRAEDTAVYYCATHLYNYDAFASWGQGTLVTVSS
VL: DIQLTQSPSFLSASVGDRVTMTCRASSSVNYIHWYQQKPGKSPKALIYATSNLASGVPSRFSGSGSGTEYTLTISSVQPEDFATYYCQQWNSNPLTFGQGTKLEIK
notes: humanized 35B4
B19: hu35B4.H3L1 (antibody, V domains shown)
VH: EVQLLESGGGLVQPGGSLRLSCAASGFTLSSYALSWVRQAPGKGLEWVAYISNLGGSTFYPDTVKGRFTISRDNSKNTLYLQMNSLRAEDTAVYYCATHLYNYDAFASWGQGTLVTVSS
VL: DIQLTQSPSFLSASVGDRVTITCRASSSVNYIHWYQQKPGKAPKLLIYATSNLASGVPSRFSGSGSGTEFTLTISSLQPEDFATYYCQQWNSNPLTFGQGTKLEIK
notes: humanized 35B4
B20: hu35B4.H3L2 (antibody, V domains shown)
VH: EVQLLESGGGLVQPGGSLRLSCAASGFTLSSYALSWVRQAPGKGLEWVAYISNLGGSTFYPDTVKGRFTISRDNSKNTLYLQMNSLRAEDTAVYYCATHLYNYDAFASWGQGTLVTVSS
VL: DIQLTQSPSFLSASVGDRVTITCRASSSVNYIHWYQQKPGKAPKALIYATSNLASGVPSRFSGSGSGTEYTLTISSLQPEDFATYYCQQWNSNPLTFGQGTKLEIK
notes: humanized 35B4
B21: hu35B4.H3L3 (antibody, V domains shown)
VH: EVQLLESGGGLVQPGGSLRLSCAASGFTLSSYALSWVRQAPGKGLEWVAYISNLGGSTFYPDTVKGRFTISRDNSKNTLYLQMNSLRAEDTAVYYCATHLYNYDAFASWGQGTLVTVSS
VL: DIQLTQSPSFLSASVGDRVTITCRASSSVNYIHWYQQKPGKSPKALIYATSNLASGVPSRFSGSGSGTEYTLTISSLQPEDFATYYCQQWNSNPLTFGQGTKLEIK
notes: humanized 35B4
B22: hu35B4.H3L4 (antibody, V domains shown)
VH: EVQLLESGGGLVQPGGSLRLSCAASGFTLSSYALSWVRQAPGKGLEWVAYISNLGGSTFYPDTVKGRFTISRDNSKNTLYLQMNSLRAEDTAVYYCATHLYNYDAFASWGQGTLVTVSS
VL: DIQLTQSPSFLSASVGDRVTMTCRASSSVNYIHWYQQKPGKSPKALIYATSNLASGVPSRFSGSGSGTEYTLTISSVQPEDFATYYCQQWNSNPLTFGQGTKLEIK
notes: humanized 35B4

target: T1, human CLDN18.2 (hCLDN18.2), expressed on cells (human); assay: FACS, MFC cells over-expressing hCLDN18.2
T1 construct: the constructs in the cell lines are not described; also called Claudin18.2; HEK293-hCLDN18.2

In order of falling EC50:
1. B11  2000 pM
2. B2  1310 pM
3. B7  1250 pM
4. B6  1230 pM
5. B8  1190 pM
6. B9  1160 pM
7. B3  1080 pM
8. B10  1050 pM
9. B4  656 pM
10. B5  642 pM
11. B1  586 pM

target: T1, human CLDN18.2 (hCLDN18.2), expressed …; assay: FACS, SNU620 cells over-expressing hCLDN18.2

In order of falling EC50:
1. B13  525 pM
2. B15  474 pM
3. B12  439 pM
4. B17  413 pM
5. B14  382 pM
6. B18  367 pM
7. B16  355 pM
8. B22  350 pM
9. B21  319 pM
10. B20  297 pM
11. B19  258 pM
